The text below walks through data of article PMC10355216 (2023).

Where no end group is shown, it is not given here.

The target in experiment [1] is T1, recombinant CSN^ΔCSNAP complex (UniProt Q13098 1-491; Q9UNS2 1-423; Q92905 1-334; Q99627 2-209). As to the kind of experiment: SPR. For orientation: In SPR one partner is held on a chip, and binding of the other changes the refractive index at the surface.
Experiment [2] has as its target T1, recombinant CSN^ΔCSNAP complex. The experiment in a line: SPR. The source holds these as a separate data set.

B1: 16AA C-CSNAP peptide, C-terminally biotinylated (peptide)
peptide: DFFNDFEDLFDDDDIQ-biotin
As a reminder, the Kd is the free concentration of one partner at which half of the binding sites on the other are occupied at equilibrium, for simple one-to-one binding. As usually defined, the koff is the first-order rate constant of dissociation. With B1, the dissociation constant (Kd) in experiment [1] was found to be 0.4 nM. The off-rate constant (koff) in experiment [2] came to 0.0014 s⁻¹.

B2: full-length CSNAP, C-terminally biotinylated (natural protein)
chain: MKPAVDEMFPEGAGPYVDLDEAGGSTGLLMDLAANEKAVHADFFNDFEDLFDDDDIQ-biotin
B2: the equilibrium dissociation constant (Kd) in experiment [1] is 0.068 nM. Besides, the koff in experiment [2] was 0.00016 s⁻¹.

B3: 20AA C-CSNAP peptide, C-terminally biotinylated (peptide)
peptide: AVHADFFNDFEDLFDDDDIQ-biotin
As for B3, the Kd in experiment [1] was determined as 0.41 nM. The koff in experiment [2] is 0.001 s⁻¹.

B4: D42E C-CSNAP peptide, C-terminally biotinylated (peptide)
peptide: EFFNDFEDLFDDDDIQ-biotin
On to B4, for which, in experiment [1], the dissociation constant (Kd) amounted to 2.5 nM. Further, the dissociation rate constant (koff) in experiment [2] was 0.0027 s⁻¹.
